Data taken from publication PMC10213629 (2023).

B1: Crc (catabolite repression control protein), His-tag removed (natural protein)
chain: MRIISVNVNGIQAAAERGLLSWLQAQNADVICLQDTRASAFDLDDPSFQLDGYFLYACDAELPEQGGVALYSRLQPKAVISGLGFETADRYGRYLQADFDKVSIATLLLPSGQSGDESLNQKFKFMDDFTHYLSKQRRKRREYIYCGSLYVAHQKMDVKNWRECQQMPGFLAPERAWLDEVFGNLGYADALREVSREGDQFSWWPDSEQAEMLNLGWRFDYQVLTPGLRRFVRNAKLPRQPRFSQHAPLIVDYDWQLSI
B2: CrcA (PA1677), His-tag removed (natural protein)
chain: MPHPLTLLQISGRGYPPAPLRQSTLLIIDAQEEYRSGALRLPGLDAAAAEIGVLVQAARASGTPIVHVRHLGIQGGLFDPQGPRGQFLPELQPEAGEKVVEKRLPNAFSGTELHDLLQNHGRLDLIVCGFMTHSSVSTTVRAAKDYGYRCTLADSACATRDIPTLNGGVLSAADLQRAEIAALGDNFAAIVAQARELL

Experiments:
[1] = target: Strep-CrcA (Strep-PA1677; catabolite repression control protein antagonist) (Pseudomonas aeruginosa PAO1); test: SEC-MALS; Strep-CrcA; experimental mass compared with the expected mass of a dimer
[2] = target: B2; test: grating-coupled interferometry; CrcA immobilised (9.5 ng/mm^2); Crc 20 μM to 156.25 nM; ES-buffer, 25°C; equilibration curve analysis
[3] = target: B2; test: grating-coupled interferometry; CrcA immobilised by amine coupling (9.5 ng/mm^2); Crc 20 μM to 156.25 nM; ES-buffer, 25°C; heterogeneous ligand model
[4] = target: T1, PAO1 Hfq protein, purified (Pseudomonas aeruginosa PAO1, UniProt Q9HUM0 1-82); test: Hfq in complex with amiE6ARN RNA; kd2 heterogeneous ligand, second site
T1 chain: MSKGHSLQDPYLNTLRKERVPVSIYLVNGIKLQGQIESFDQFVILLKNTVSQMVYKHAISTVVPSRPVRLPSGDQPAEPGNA

[5] = target: T1, PAO1 Hfq protein, purified; test: Hfq in complex with amiE6ARN RNA; KD1 heterogeneous ligand
[6] = target: B2; test: immobilized Crc
[7] = target: T1, PAO1 Hfq protein, purified; test: Hfq in complex with amiE6ARN RNA; kd1 heterogeneous ligand
[8] = target: B1; test: immobilized CrcA; kd1 heterogeneous ligand
[9] = target: B1; test: immobilized CrcA; KD2 heterogeneous ligand, second site
[10] = target: B1; test: immobilized CrcA; kd2 heterogeneous ligand, second site
[11] = target: Crc (catabolite repression control protein), His-tag removed (Pseudomonas aeruginosa PAO1) (UniProt Q51380); test: grating-coupled interferometry; Crc immobilised by amine coupling (15 pg/mm^2); CrcA 20 μM to 156.25 nM; ES-buffer, 25°C; 1:1 kinetic fit
[12] = target: Crc (catabolite repression control protein), His-tag removed (Pseudomonas aeruginosa PAO1) (UniProt Q51380); test: grating-coupled interferometry; Crc immobilised (15 pg/mm^2); CrcA 20 μM to 156.25 nM; ES-buffer, 25°C; equilibration curve analysis

Strep-CrcA (Strep-PA1677; catabolite repression control protein antagonist) (natural protein)
stoichiometry N [1]: 2

Crc (catabolite repression control protein), His-tag removed (from UniProt Q51380 1-259) (natural protein)
Kd [2]: 7.14 µM
KD1 [3]: 8.35 µM

B1
koff [4]: 0.00786 s⁻¹
Kd [5]: 0.402 µM
koff [6]: 2.45 s⁻¹
koff [7]: 0.374 s⁻¹

B2
koff [8]: 0.653 s⁻¹
Kd [9]: 3.93 µM
koff [10]: 0.0454 s⁻¹
Kd [11]: 11 µM
Kd [12]: 12 µM
